What was measured:
Grb2 SH2 = Grb2 SH2 (UniProt P62993); assay: SH2 binding enrichment of the phosphorylated peptide, bacterial display (enrichment ratio); higher = better substrate or ligand; peptides without Tyr show the background
SHP2-C SH2 = assay: as above
c-Src SH2 = assay: as above
AncSZ = assay: phosphorylation enrichment, bacterial display (enrichment ratio); higher = better substrate or ligand; peptides without Tyr show the background
FGFR1 = FGFR1 (UniProt P11362); assay: as above
Fes = Fes (UniProt P07332); assay: as above
Chain of Fes (P07332 whole entry, looked up): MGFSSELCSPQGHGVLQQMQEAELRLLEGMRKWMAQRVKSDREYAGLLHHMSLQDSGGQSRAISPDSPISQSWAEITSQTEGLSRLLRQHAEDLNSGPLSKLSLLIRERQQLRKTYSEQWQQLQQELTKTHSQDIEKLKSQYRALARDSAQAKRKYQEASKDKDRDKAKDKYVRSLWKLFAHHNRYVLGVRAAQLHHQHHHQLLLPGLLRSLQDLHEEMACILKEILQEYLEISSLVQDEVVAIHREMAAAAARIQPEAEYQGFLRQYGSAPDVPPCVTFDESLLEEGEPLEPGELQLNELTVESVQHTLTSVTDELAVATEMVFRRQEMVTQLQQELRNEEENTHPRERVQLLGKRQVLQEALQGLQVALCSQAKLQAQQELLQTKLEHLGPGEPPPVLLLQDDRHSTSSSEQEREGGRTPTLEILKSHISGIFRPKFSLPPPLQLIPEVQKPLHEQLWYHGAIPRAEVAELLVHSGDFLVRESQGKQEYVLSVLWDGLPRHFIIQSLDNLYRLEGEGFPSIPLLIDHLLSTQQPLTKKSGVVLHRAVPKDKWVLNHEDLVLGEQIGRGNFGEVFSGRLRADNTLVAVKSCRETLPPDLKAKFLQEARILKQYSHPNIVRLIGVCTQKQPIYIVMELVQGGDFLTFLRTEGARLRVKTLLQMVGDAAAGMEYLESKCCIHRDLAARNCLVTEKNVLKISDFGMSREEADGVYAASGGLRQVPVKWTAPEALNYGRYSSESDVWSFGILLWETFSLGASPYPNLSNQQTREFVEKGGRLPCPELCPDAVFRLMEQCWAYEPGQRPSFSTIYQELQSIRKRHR

EPHB2 = EPHB2 (UniProt P29323); assay: as above
Chain of EPHB2 (P29323 whole entry, looked up): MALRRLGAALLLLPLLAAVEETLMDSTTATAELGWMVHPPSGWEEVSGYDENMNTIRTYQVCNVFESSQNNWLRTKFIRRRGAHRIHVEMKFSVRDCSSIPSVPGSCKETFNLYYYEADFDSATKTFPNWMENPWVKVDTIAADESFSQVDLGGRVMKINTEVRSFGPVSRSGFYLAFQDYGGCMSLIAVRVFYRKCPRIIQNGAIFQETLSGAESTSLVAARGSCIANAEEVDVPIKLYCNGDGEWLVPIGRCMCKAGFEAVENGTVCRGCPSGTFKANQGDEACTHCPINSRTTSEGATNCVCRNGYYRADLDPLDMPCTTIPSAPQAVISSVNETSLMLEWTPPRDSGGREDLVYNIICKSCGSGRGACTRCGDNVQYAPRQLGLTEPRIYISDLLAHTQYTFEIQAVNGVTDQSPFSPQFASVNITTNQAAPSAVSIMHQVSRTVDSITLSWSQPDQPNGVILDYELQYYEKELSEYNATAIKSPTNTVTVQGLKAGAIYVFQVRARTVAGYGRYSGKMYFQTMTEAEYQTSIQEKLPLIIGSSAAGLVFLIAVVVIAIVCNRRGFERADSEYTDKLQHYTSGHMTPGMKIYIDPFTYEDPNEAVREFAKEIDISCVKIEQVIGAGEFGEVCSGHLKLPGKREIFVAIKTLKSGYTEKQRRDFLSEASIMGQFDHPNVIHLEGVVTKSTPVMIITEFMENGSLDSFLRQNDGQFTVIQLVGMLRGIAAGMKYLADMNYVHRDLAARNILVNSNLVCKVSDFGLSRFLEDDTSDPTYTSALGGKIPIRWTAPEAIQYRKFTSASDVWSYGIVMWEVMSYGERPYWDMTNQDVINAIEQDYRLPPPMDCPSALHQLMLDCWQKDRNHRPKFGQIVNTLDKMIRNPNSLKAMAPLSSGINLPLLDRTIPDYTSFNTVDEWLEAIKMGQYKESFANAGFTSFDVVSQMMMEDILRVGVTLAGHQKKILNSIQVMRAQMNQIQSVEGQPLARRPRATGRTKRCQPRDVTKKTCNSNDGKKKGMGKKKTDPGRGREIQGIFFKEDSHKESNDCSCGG

Fer (mouse) = assay: as above
EPHB1 = EPHB1 (UniProt P54762); assay: as above
FGFR3 = FGFR3 (UniProt P22607); assay: as above
MERTK = MERTK (UniProt Q12866); assay: as above
Chain of MERTK (Q12866 whole entry, looked up): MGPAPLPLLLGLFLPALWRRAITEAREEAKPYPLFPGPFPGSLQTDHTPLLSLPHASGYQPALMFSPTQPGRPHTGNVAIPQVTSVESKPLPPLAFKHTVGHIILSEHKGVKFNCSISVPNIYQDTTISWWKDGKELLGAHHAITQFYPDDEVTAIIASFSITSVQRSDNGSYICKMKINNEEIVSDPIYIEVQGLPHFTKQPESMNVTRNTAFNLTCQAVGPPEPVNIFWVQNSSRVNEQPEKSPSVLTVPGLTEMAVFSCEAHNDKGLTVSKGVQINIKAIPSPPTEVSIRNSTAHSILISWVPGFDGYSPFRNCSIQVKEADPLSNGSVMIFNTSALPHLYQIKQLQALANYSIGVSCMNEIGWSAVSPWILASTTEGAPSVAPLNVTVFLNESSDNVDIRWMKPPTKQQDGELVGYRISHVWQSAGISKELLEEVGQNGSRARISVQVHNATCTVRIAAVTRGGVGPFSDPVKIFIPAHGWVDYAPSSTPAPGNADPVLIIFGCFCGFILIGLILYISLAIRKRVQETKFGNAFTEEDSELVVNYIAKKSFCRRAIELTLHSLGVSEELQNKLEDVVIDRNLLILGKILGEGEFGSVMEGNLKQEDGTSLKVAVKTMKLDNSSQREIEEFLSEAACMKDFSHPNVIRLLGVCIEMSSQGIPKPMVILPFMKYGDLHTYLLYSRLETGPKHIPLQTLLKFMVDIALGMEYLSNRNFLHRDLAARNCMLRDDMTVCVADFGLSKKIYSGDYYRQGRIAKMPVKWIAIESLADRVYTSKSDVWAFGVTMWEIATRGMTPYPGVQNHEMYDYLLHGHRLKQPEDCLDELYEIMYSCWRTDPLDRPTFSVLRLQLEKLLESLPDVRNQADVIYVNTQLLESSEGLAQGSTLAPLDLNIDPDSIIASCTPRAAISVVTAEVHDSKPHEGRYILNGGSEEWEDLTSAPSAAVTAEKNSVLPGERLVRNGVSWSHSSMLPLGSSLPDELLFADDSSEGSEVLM

c-Src = assay: as above
Fyn = Fyn (UniProt P06241); assay: as above
Chain of Fyn (P06241 whole entry, looked up): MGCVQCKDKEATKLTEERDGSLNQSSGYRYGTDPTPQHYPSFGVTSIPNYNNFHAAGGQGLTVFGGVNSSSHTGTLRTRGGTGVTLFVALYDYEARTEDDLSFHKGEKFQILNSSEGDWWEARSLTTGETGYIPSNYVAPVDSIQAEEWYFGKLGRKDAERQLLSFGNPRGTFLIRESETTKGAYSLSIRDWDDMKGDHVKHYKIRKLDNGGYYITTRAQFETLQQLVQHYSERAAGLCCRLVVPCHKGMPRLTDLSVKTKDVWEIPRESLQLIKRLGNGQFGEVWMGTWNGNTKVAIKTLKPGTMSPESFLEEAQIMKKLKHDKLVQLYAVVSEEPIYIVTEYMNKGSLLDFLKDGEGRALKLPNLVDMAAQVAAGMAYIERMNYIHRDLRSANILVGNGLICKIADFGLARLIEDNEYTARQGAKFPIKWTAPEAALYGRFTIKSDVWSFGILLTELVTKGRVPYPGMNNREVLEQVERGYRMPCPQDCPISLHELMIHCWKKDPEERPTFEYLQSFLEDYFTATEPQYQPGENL

Jak2 = Jak2 (UniProt O60674); assay: as above
c-Abl (mouse) = assay: as above
Hck = Hck (UniProt P08631); assay: as above
Chain of Hck (P08631 whole entry, looked up, the tested form may be a part): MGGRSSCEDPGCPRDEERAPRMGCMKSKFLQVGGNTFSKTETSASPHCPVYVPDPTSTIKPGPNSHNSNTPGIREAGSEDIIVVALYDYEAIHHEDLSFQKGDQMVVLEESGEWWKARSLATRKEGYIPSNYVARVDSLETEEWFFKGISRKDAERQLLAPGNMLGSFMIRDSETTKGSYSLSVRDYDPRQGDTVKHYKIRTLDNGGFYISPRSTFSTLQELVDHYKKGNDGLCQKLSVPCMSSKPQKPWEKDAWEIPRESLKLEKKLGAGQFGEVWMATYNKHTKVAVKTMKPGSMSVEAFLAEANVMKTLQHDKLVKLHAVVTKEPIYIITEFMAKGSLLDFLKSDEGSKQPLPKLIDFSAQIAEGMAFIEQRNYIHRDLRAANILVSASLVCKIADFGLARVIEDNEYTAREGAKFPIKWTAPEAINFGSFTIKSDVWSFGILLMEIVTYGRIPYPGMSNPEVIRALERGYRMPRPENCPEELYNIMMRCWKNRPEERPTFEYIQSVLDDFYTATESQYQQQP
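For SH2 binding enrichment of the phosphorylated peptide, bacterial display in this document: peptide library displayed on the E. coli surface as eCPX fusions, selected cells deep-sequenced, score is each peptide's frequency after selection divided by its frequency in the input.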
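For phosphorylation enrichment, bacterial display in this document: 11-residue human phosphosite peptides and single-mutation variants displayed on the E. coli surface, counted by deep sequencing, each peptide's frequency after selection divided by its frequency in the unselected input library; frequency after pTyr selection over input frequency; kinase dosed for 20-30% of maximal phosphorylation in three min.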

Chain of FGFR1 (P11362 whole entry, looked up): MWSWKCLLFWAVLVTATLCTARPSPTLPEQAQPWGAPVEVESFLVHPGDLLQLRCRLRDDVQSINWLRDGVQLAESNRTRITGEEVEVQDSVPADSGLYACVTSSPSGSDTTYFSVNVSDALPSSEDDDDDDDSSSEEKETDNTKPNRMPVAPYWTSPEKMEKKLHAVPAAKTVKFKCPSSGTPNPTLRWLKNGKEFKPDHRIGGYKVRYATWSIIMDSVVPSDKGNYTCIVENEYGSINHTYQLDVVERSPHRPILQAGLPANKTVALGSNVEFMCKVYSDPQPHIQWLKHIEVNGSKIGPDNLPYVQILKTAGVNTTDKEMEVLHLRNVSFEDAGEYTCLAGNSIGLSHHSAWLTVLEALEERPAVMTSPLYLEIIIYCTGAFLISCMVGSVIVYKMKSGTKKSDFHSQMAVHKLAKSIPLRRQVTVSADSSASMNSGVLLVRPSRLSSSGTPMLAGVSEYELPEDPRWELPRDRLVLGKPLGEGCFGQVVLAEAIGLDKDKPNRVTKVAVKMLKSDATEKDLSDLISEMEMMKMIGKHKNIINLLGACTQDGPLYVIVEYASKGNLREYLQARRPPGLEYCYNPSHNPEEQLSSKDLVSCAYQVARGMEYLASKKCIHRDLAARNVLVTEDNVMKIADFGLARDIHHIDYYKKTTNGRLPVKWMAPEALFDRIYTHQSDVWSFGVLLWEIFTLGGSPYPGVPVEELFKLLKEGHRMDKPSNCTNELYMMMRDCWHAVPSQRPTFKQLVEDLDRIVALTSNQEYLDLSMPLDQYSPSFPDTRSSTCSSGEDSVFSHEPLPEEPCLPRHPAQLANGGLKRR

| Sequence | SH2 binding enrichment (Grb2 SH2) | SH2 binding enrichment (SHP2-C SH2) | SH2 binding enrichment (c-Src SH2) | phosphorylation enrichment (AncSZ) | phosphorylation enrichment (FGFR1) | phosphorylation enrichment (Fes) | phosphorylation enrichment (EPHB2) | phosphorylation enrichment (Fer (mouse)) | phosphorylation enrichment (EPHB1) | phosphorylation enrichment (FGFR3) | phosphorylation enrichment (MERTK) | phosphorylation enrichment (c-Src) | phosphorylation enrichment (Fyn) | phosphorylation enrichment (Jak2) | phosphorylation enrichment (c-Abl (mouse)) | phosphorylation enrichment (Hck) |
| --- | --- | --- | --- | --- | --- | --- | --- | --- | --- | --- | --- | --- | --- | --- | --- | --- |
| KSLFHYRQYSA [CPS1_Y1491] | 0.749 | 0.521 | 0.379 | 0.778 | 0.531 | 0.808 | 0.602 | 0.408 | 0.527 | 0.646 | 0.469 | 0.493 | 0.54 | 0.686 | 0.567 | 0.512 |
| KTTSGYAGGLS [KRT8_Y419] | 1.32 | 0.617 | 0.431 | 0.404 | 0.398 | 0.496 | 0.304 | 0.422 | 0.332 | 0.376 | 0.3 | 0.369 | 0.33 | 0.373 | 0.456 | 0.289 |
| LAARFYNWVSF [FLT4_Y1231_YF] | 1.26 | 1.61 | 1.25 | 1.44 | 1.27 | 1.55 | 0.605 | 2.55 | 0.69 | 1.56 | 1.02 | 0.82 | 0.51 | 1.1 | 0.988 | 0.476 |
| LDLSYYPTSSS [EMD_Y182] | 0.853 | 0.66 | 1.24 | 2.17 | 3.94 | 1.81 | 1.18 | 0.835 | 1.21 | 3.28 | 0.955 | 0.72 | 0.762 | 5.02 | 1.41 | 0.947 |
| LDMSQYFRLFN [CPT2_Y217] | 1.23 | 2.02 | 0.669 | 1.1 | 2.15 | 1.55 | 0.531 | 0.613 | 0.539 | 1.62 | 0.755 | 0.601 | 0.959 | 4.15 | 0.92 | 0.885 |
| LENSTYQFICV [CRB1_Y760_R764C_YF] | 0.9 | 0.739 | 0.457 | 2.12 | 3.43 | 1.79 | 2.39 | 8.22 | 4.2 | 3.21 | 2.49 | 1.84 | 2.23 | 1.37 | 1.12 | 3.46 |
| LGRTVYADCLA [ABCA4_Y2063_L2060R] | 1.15 | 3.39 | 1.71 | 0.983 | 0.918 | 2.65 | 1.61 | 1.4 | 1.26 | 1.37 | 0.939 | 0.903 | 0.902 | 1.76 | 1.39 | 0.989 |
| LHRAHYDLCHT [AHSG_Y314_R317C] | 1.13 | 0.935 | 2.25 | 0.814 | 0.513 | 1.12 | 0.542 | 0.516 | 0.572 | 0.648 | 0.435 | 0.495 | 0.401 | 0.88 | 0.777 | 0.47 |
| LIDGFYRLTED [JAK2_Y373_A377E_YF] | 0.699 | 0.678 | 0.661 | 1.31 | 0.537 | 1.54 | 0.89 | 0.613 | 0.586 | 0.747 | 0.549 | 0.895 | 0.66 | 1.11 | 0.974 | 0.552 |
| LIFTNYEAGKD [GSTP1_Y112_YF] | 0.848 | 0.55 | 0.499 | 1.21 | 0.824 | 1.39 | 0.571 | 0.453 | 0.703 | 0.646 | 0.675 | 0.998 | 0.414 | 1.26 | 1.24 | 0.582 |
| LIFVSYDDWDY [GRIN2A_Y281_S278F] | 1.38 | 1.38 | 1.16 | 2.07 | 0.95 | 2.75 | 2.52 | 4.89 | 1.8 | 1.77 | 0.618 | 0.914 | 0.966 | 2.22 | 1.49 | 0.774 |
| LKLIQYHLTQQ [AKAP4_Y554] | 1.03 | 1.31 | 0.762 | 0.902 | 0.932 | 1.34 | 0.774 | 0.711 | 0.88 | 0.879 | 1.15 | 0.599 | 0.5 | 1.28 | 0.646 | 0.534 |
| LLPNAYIFVVQ [L1CAM_Y418_A415P_YF] | 0.65 | 0.508 | 0.47 | 1.79 | 0.868 | 1.66 | 1.06 | 0.731 | 0.849 | 1.07 | 0.561 | 0.481 | 0.634 | 1.5 | 1.06 | 0.73 |
| LQKNIYSEELR [LMNA_Y211_F206L] | 0.709 | 0.7 | 0.582 | 1.32 | 1.79 | 1.39 | 1.02 | 0.61 | 1.82 | 1.37 | 4.38 | 0.722 | 1.92 | 0.508 | 0.445 | 1.49 |
| LQLLGDRPVYS [CHST6_Y358_Y358D] | 0.772 | 0.792 | 0.335 | 1.88 | 1.63 | 3.27 | 2.16 | 1.53 | 2.17 | 1.64 | 0.683 | 1.35 | 1.7 | 2.78 | 1.3 | 1.37 |
| LRLSSYSTTIR [CYP7B1_Y365] | 1.1 | 0.823 | 0.796 | 1.41 | 0.655 | 1.1 | 0.708 | 0.524 | 0.674 | 0.756 | 0.686 | 0.658 | 0.687 | 0.936 | 0.676 | 0.615 |

Now from value to sequence, other results behind:

| SH2 binding enrichment (Grb2 SH2) | SH2 binding enrichment (SHP2-C SH2) | SH2 binding enrichment (c-Src SH2) | Sequence | phosphorylation enrichment (AncSZ) | phosphorylation enrichment (FGFR1) | phosphorylation enrichment (Fes) | phosphorylation enrichment (EPHB2) | phosphorylation enrichment (Fer (mouse)) | phosphorylation enrichment (EPHB1) | phosphorylation enrichment (FGFR3) | phosphorylation enrichment (MERTK) | phosphorylation enrichment (c-Src) | phosphorylation enrichment (Fyn) | phosphorylation enrichment (Jak2) | phosphorylation enrichment (c-Abl (mouse)) | phosphorylation enrichment (Hck) |
| --- | --- | --- | --- | --- | --- | --- | --- | --- | --- | --- | --- | --- | --- | --- | --- | --- |
| 1.04 | 0.715 | 1.15 | KNKELYSDLFD [PDE10A_Y300] | 1.13 | 0.556 | 1.14 | 0.794 | 1.84 | 1.03 | 0.66 | 1.35 | 0.6 | 0.68 | 0.898 | 0.918 | 0.958 |
| 0.781 | 0.803 | 0.4 | KQELVYTNKKL [OPTN_Y356] | 0.69 | 0.47 | 0.675 | 0.561 | 0.571 | 0.496 | 0.474 | 0.594 | 0.836 | 0.441 | 0.791 | 0.759 | 0.734 |
| 0.787 | 0.71 | 0.502 | KRIETYFSKNY [PLP1_Y50_L46R] | 0.658 | 0.436 | 0.748 | 0.365 | 0.377 | 0.427 | 0.504 | 0.392 | 0.384 | 0.374 | 0.661 | 0.532 | 0.484 |
| 0.933 | 0.573 | 0.569 | KRLKDYLTVLQ [USP25_Y425] | 0.679 | 0.506 | 0.664 | 0.412 | 0.431 | 0.422 | 0.522 | 0.352 | 0.403 | 0.349 | 0.625 | 0.783 | 0.322 |
| 0.729 | 0.768 | 1.18 | KSSDVYVSYDY [SORL1_Y136] | 1.16 | 4.12 | 1.07 | 1.92 | 0.914 | 1.38 | 2.64 | 1.97 | 4.15 | 5.35 | 1.08 | 0.712 | 2.18 |
| 1.43 | 1.44 | 1.36 | KVALLYKPYFY [POLE_Y100_P99L] | 0.987 | 0.483 | 1.11 | 0.483 | 0.474 | 0.605 | 0.693 | 0.473 | 0.737 | 0.457 | 0.977 | 0.866 | 0.514 |
| 0.685 | 0.583 | 0.44 | KVGPGYLGSGG [RET_Y826] | 0.438 | 0.334 | 0.451 | 0.377 | 0.365 | 0.287 | 0.392 | 0.423 | 0.368 | 0.42 | 0.457 | 0.399 | 0.315 |
| 0.702 | 0.736 | 1.08 | KYLENYYDLEK [MMP3_Y41_K45E] | 1.64 | 8.94 | 1.3 | 4.75 | 0.664 | 9.73 | 6.66 | 0.819 | 2.2 | 5.37 | 1.2 | 0.818 | 1.83 |
| 0.652 | 0.771 | 0.408 | LDTIQYSKHPP [SQSTM1_Y433] | 1.01 | 0.6 | 1.73 | 0.998 | 0.583 | 0.778 | 1.08 | 0.792 | 0.649 | 0.917 | 1.07 | 0.75 | 0.695 |
| 1.16 | 0.986 | 0.591 | LEEFQYIGELQ [MSH2_Y856_S860L] | 1.92 | 0.793 | 2.04 | 0.788 | 0.656 | 0.892 | 1.08 | 0.716 | 0.738 | 0.718 | 2.39 | 1.33 | 0.908 |
| 0.907 | 0.73 | 0.505 | LEFAKYGSLRG [RET_Y809_V804L_YF] | 0.567 | 0.316 | 0.644 | 0.792 | 0.373 | 0.37 | 0.459 | 0.388 | 0.43 | 0.398 | 0.593 | 0.454 | 0.567 |
| 1.29 | 1.04 | 0.54 | LITLVYGCSRQ [TMPRSS6_Y290_S288L] | 1.7 | 0.599 | 1.74 | 0.876 | 0.848 | 0.644 | 0.863 | 0.851 | 1.08 | 0.578 | 1.86 | 0.978 | 0.721 |
| 1.41 | 1.04 | 1.11 | LLIMEYAKYGS [RET_Y806_V804M] | 1.39 | 0.999 | 1.81 | 1.02 | 0.903 | 1.4 | 1.19 | 0.6 | 0.973 | 1.03 | 2.18 | 1.51 | 0.64 |
| 1.98 | 1.92 | 1.85 | LLVVLYKFRCF [PSEN1_Y154_Y159F_YF] | 1.39 | 0.568 | 1.97 | 0.773 | 0.718 | 0.685 | 1.56 | 1.03 | 0.937 | 0.51 | 1.85 | 1.77 | 0.622 |
| 0.755 | 0.595 | 0.419 | LNCDRYSAGLL [PDE6A_Y275_V277A] | 0.919 | 0.396 | 0.834 | 0.481 | 0.432 | 0.487 | 0.612 | 0.378 | 0.448 | 0.512 | 0.87 | 0.673 | 0.39 |
| 0.773 | 0.773 | 0.727 | LNRAGYCDALE [MTUS1_Y151_C148R] | 1.06 | 0.686 | 1.12 | 0.988 | 0.571 | 0.684 | 0.994 | 0.484 | 0.591 | 0.537 | 1 | 0.749 | 0.424 |
| 0.964 | 8.86 | 22.2 | LPVHFYSHVEH [PYGM_Y204_G205S] | 1.13 | 0.651 | 1.63 | 0.878 | 1.26 | 1.05 | 1.29 | 0.859 | 1.21 | 0.689 | 1.71 | 1.2 | 0.852 |
